{
  "source": "paper PMC6347818",
  "key": {"[1]": {"molecular_target": "recombinant Plasmodium vivax Apical Membrane Antigen 1, PvAMA1-His6 (Plasmodium vivax) (UniProt Q9TY14)", "assay": "ITC; MicroCal VP-ITC; 9.43 µmol/L PvAMA1-His6 in the cell titrated with 300 µmol/L peptide (10 µL injections), 25 °C, PBS; one-site model"}, "[2]": {"molecular_target": "recombinant Plasmodium vivax Apical Membrane Antigen 1, PvAMA1-His6 (Plasmodium vivax) (UniProt Q9TY14)", "assay": "SPR; Biacore T200; PvAMA1-His6 amine-coupled on a CM5 chip; peptides injected at 50 µL/min, 25 °C, PBS; steady-state model, apparent KD"}},
  "data": [
    {"substance": "cyclic PvRON2 (2035-2074) peptide", "values": [
      {"measurement": "Ka", "setting": "[1]", "value": 300000, "unit": "M⁻¹"},
      {"measurement": "dH", "setting": "[1]", "value": -36, "unit": "kcal/mol"},
      {"measurement": "stoichiometry N (peptide/protein)", "setting": "[1]", "value": 0.6},
      {"measurement": "Kd", "setting": "[2]", "value": 23.9, "unit": "µM"}
    ]}
  ]
}
